Test system: FOXA1 P358fs (purified)
Experiment: BLI
Conditions: buffer, pH and temperature not given

KLK3 enhancer 60 bp
binding signal (fold higher affinity than WT): 5
